# Results: the MegaScale stability set (Tsuboyama et al. 2023)
# B1: 2K2A (parent)
# chain: ELREAFRLYDKEGNGYISTDVMREILAELDETLSSEDLDAMIDEIDADGSGTVDFEEFMGVMT
# Variants of: B1
# Test: folding stability dG (cDNA display proteolysis); higher = more stable
# Details: PBS, room temperature
row,Variant,folding stability dG [kcal/mol]
1,D37T,1.76
2,L26F,1.04
3,L26C,0.479
4,L26W,0.837
5,L26I,1.45
6,L26M,1.27
7,A5F,2.74
8,A5I,2.78
9,A5N,1.13
10,A5M,2.91
11,R7H,1.72
12,R7L,1.93
13,R7N,2.06
14,R7D,1.81
15,R7T,1.75
16,R7W,1.76
17,F6Q,0.462
18,F6P,0.281
19,Y16L,0.96
20,Y16Q,1.03
21,Y16A,0.729
22,Y16H,1.21
23,Y16I,0.893
24,Y16D,-0.18

row,Variant,folding stability dG [kcal/mol]
1,S34T,2.12
2,S34E,1.05
3,S34G,1.26
4,S34H,0.919
5,S34M,1.27
6,S34W,0.76
7,E56Y,2.02
8,E56G,1.56
9,E56S,1.75
10,E56K,1.77
11,E56N,1.86
12,E57L,1.9
13,E57W,1.55
14,E57T,2.46
15,E57D,1.72
16,E57Q,2.48
17,E57Y,1.58
18,E57G,2.33
19,M22F,1.65
20,E31A,2.24
21,E31Y,2.01
22,E31V,2.01
23,E31I,1.93
24,V53S,0.029

row,Variant,folding stability dG [kcal/mol]
1,V53Y,0.679
2,V53C,0.799
3,V53I,2.37
4,D46T,0.826
5,D46W,0.628
6,D46A,0.858
7,D46G,0.581
8,D46S,0.962
9,D46R,0.799
10,I42H,-0.459
11,I42V,1.34
12,I42R,-0.918
13,I42C,0.098
14,E12I,1.1
15,E12A,1.57
16,E12H,1.41
17,E12N,1.52
18,E12P,0.544
19,M59T,1.49
20,M59G,0.537
21,M59L,1.91
22,M59F,2.03
23,I25T,-0.61
24,I25M,1.31

row,Variant,folding stability dG [kcal/mol]
1,I25C,0.786
2,A40L,1.85
3,A40R,2.31
4,A40F,1.77
5,A40V,1.69
6,A40T,1.57
7,A40N,1.73
8,A40W,1.6
9,A40G,1.34
10,L38I,1.99
11,L38P,-0.322
12,L38T,0.114
13,L38H,-0.529
14,L38Q,0.089
15,I17C,0.277
16,I17L,1.36
17,I17Y,-0.493
18,D54C,1.51
19,D54A,1.78
20,D54T,2.36
21,D54Y,2
22,D54G,2.07
23,N14F,1.7
24,N14K,2.09

row,Variant,folding stability dG [kcal/mol]
1,N14Y,1.6
2,N14L,2.17
3,N14H,1.63
4,N14V,2.07
5,S50Q,1.12
6,S50V,1.18
7,S50W,0.737
8,S50P,0.13
9,L33S,0.411
10,L33G,-0.126
11,L33N,0.113
12,L33M,1.41
13,E1I,2.02
14,E1S,2.28
15,E1D,2.41
16,E1Y,2.41
17,D48P,0.465
18,D48H,1.51
19,D48S,1.57
20,D48G,1.37
21,E4M,1.39
22,E4R,1.6
23,E4S,1.24
24,E4D,2

row,Variant,folding stability dG [kcal/mol]
1,E4A,1.77
2,E4C,2.85
3,D20F,1.89
4,D20Y,1.66
5,D20T,2.25
6,D20W,1.99
7,D20N,2.04
8,D20G,1.89
9,D20I,2.03
10,D20P,1.15
11,D20K,2.4
12,I45A,1.56
13,I45W,1.32
14,I45K,-0.192
15,I45P,-0.366
16,I45G,0.37
17,I45H,0.664
18,I45Y,1.05
19,I45C,0.783
20,T52C,1.15
21,T52Q,1.68
22,T52Y,1.52
23,T52P,-0.373
24,T52E,1.28

row,Variant,folding stability dG [kcal/mol]
1,T52F,1.53
2,L2C,2.73
3,L2N,0.689
4,L2G,0.65
5,L2A,1.23
6,M41N,-0.4
7,M41C,1.37
8,A47M,1.64
9,A47G,1.57
10,A47Y,1.62
11,A47L,1.78
12,A47P,1.92
13,A47D,1.06
14,A47W,1.96
15,D39W,1.22
16,T63E,1.66
17,T63P,1
18,D30F,2.19
19,D30T,1.3
20,D30M,1.95
21,D30A,1.28
22,D30Y,2.36
23,D30G,1.13
